Assay results taken from PMC6086869, “Accelerated pharmaceutical protein development with integrated cell free expression, purification, and bioconjugation” (Scientific Reports, 2018).
One block for each molecule: values may come before it.

Tests used:
[1] = target: Peptide 3 (NpuDnaEC16 capture peptide with ANP photocleavable residue); assay: pull-down; peptide 3 immobilised by its His6 on HisPur Ni-NTA magnetic beads; hCNTF-NpuDnaE(ΔC16) in BYL or HeLa CFPS matrix, overnight, room temperature; captured share from Western blots of the matrix before and after capture; the capture is followed by protein trans splicing, which ligates hCNTF covalently to the peptide's C-terminal stretch
[2] = target: the molecule itself; assay: SDS-PAGE without β-mercaptoethanol in the loading buffer, Western blot; purified hCNTF standard; anti-hCNTF polyclonal antibody for detection

amount of hCNTF bound to the beads [1]: 0.42 μg/mg beads
Molecule: hCNTF-NpuDnaE(ΔC16) synthesised in the tobacco BY-2 lysate (BYL) cell free system (from UniProt P26441 1-200)

amount of hCNTF bound to the beads [1]: 1.14 μg/mg beads
Molecule: hCNTF-NpuDnaE(ΔC16) synthesised in the HeLa cell free system (from UniProt P26441 1-200)

B1: His6-hCNTF (purified human ciliary neurotrophic factor used as standard) (natural protein, UniProt P26441 1-200, looked up)
chain: MAFTEHSPLTPHRRDLCSRSIWLARKIRSDLTALTESYVKHQGLNKNINLDSADGMPVASTDQWSELTEAERLQENLQAYRTFHVLLARLLEDQQVHFTPTEGDFHQAIHTLLLQVAAFAYQIEELMILLEYKIPRNEADGMPINVGDGGLFEKKLWGLKVLQELSQWTVRSIHDLRFISSHQTGIPARGSHYIANNKKM
notes: human ciliary neurotrophic factor, codon optimised gene, plasmid pOPINF-CNTF (Itkonen et al. 2014); also called purified hCNTF; purified His6-hCNTF; source: E. coli Rosetta 2 (DE3) pLysS, purified (Ni-IDA resin, size exclusion chromatography)
binding result [2]: binds
